These results are taken from the nanobody polyreactivity screen of Harvey et al. (2022).

This data set in a line: yeast display, Sf9 membrane polyspecificity reagent, FACS + sequencing; frameworks hold sequencing errors. The method, boiled down: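 Galactose-induced (36–48 hours) yeast carrying a synthetic nanobody display library were exposed to 10% biotinylated, detergent-solubilized Sf9 membrane reagent at 4 °C for 1 hour. FACS followed streptavidin microbead enrichment, using low and high (top ~1%) gates for expression (anti-HA) and reagent binding (streptavidin). Colony PCR, MiSeq 2 × 250 sequencing and CDR-length filtering followed. Labels for polyreactivity reflect the gate of origin.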
Consider “QLQLVESGGGLDQAGGSLRLSCAASGGTFFKNAMGWYRQAPGNERELVAVIDTISTSTYYAESVKGRFTISRDNAKNTVYLQMNSLKPEDTAVYYCAAEYGPGLTEGLYYYWGQGTQVTVSS”, for which the “polyreactivity (PSR sort gate)” value was “high polyreactivity”. Turning to “QLQLVESGGGLFQAGGRLRLSFAATGSTFGYYARGWYRQAPGKERELVAAISGSGGSTYYADSVKGRFTISRDNAKNTVYLQMNSLKPEDTAVYYCAATFHRLPKWGSPYYYWGQGTQVTVSS”, the “polyreactivity (PSR sort gate)” value is “high polyreactivity”. Then “QLQLVESGGGLFQAGGSLRISCAASGRTFLRNAMGSYRQPPGKEREFVATISAGGGSTYYADSVKGRFTISRDNAKNTVYLQMNSLKPEDTAVYYCAARYRAGPGYGMDSCGQGTQVTVSS”, with “high polyreactivity”. As to “QLQLVESGGGLVQAAGSLRLSSAASGSIFPDNAKGWYRQAPAKERELVATITSGGDTNYADSVKGRFTISRDNAKNTVYLQMNSLKPEDTAVYYCAADVYPDWLVKYDYWGQGTQVTVSS”, the “polyreactivity (PSR sort gate)” value was “low polyreactivity”.

As to “QLQLVESGGGLVQAGASLRLSCAASGFIFKYNAMGWYRQAPCKERELVSAISRGTSTYYADSVKGRFTISRDNAKNTVYLQLNSLKPEDTAVYYCEATGRRPGQKYMGYDYWGQGTQVTVSS”, the “polyreactivity (PSR sort gate)” value was “high polyreactivity”. Consider “QLQLVESGGGLVQAGCSLRLSCADSGRNYTMGRYRQAPGKERELVDASSKSGGSTSYADSVKGRFTISRDNAKNTVYLQLNSLKPEDTAVYYCATALRGSQAYSVRAMNYWGQATQVTVSS”, for which the “polyreactivity (PSR sort gate)” value was “high polyreactivity”. Then “QLQLVESGGGLVQAGGRLRLSCAASGITYFTYDMGWYRQAPGKERELVAAISGSGGSTYYADSVKGRFTISRDNAKNSFYLQMTSLKPEDTAVYYCAAEYTYGSPYDYWGQGTQVTVSS”, with “low polyreactivity”; and “QLQLVESGGGLVQAGGSIRLSCAASGSIFDWYAMGWYRQEPGKERELVARITSGGRTNYADSVKGRFTISRDNAKNTVYLQMNSLKPEDTAVYYCAAGRVSWSPYYYWGQGTQVTVSS”, with “high polyreactivity”; and “QLQLVESGGGLVQAGGSLRFSCAASGYISRRYAMVWSIQAPGKERELVAAITGGGGSTYYADSVKGRFTISRDNAKNTVYLQMNSLKPEFTAVYYCNAYWGRSGYAGGYWGQGTQVTVSS”, with “high polyreactivity”. Then “QLQLVESGGGLVQAGGSLRISCAASRSTFENNAMGWYRQAPGKERELVASSTNYADSVKGRFTISRDNAKNTVYLQMNSLKPEDTAVYYCAREQGVNRNHDYWGQATQVTVSS”, with “low polyreactivity”; and “QLQLVESGGGLVQAGGSLRLSCAASGFIFYLYAMGWYRQAPGKDRELVAAISWSGGITYYADSVKGRFTISRDNAKNTVYLQMNSLKPEDTAVNYCNAVGASASDGDSWGQGTQVTVSS”, with “high polyreactivity”; and “QLQLVESGGGLVQAGGSLRLSCAASGRIFDYYAIGWYRQAPGKERQLVATINFSDGSTYYADSVKGRFTISRDNAKNTVYLQMNSLKPEDTAVYYCAAAGWEPYDSLDMNYWGQGTQVTVSS”, with “low polyreactivity”. Then “QLQLVESGGGLVQAGGSLRLSCAASGRIFGNYAMGWYRQAPGKERELVASINIGGGSTYYADSVKGRFTISRDNAKNTVYLQMNSLKQEATAVYYCAAPNTTDYWPAQPGFDYWGQGTQVTVSS”, with “low polyreactivity”; and “QLQLVESGGGLVQAGGSLRLSCAASGRIFIYNAMGWYRQAPGKERELVAAINRSGVSTHYADSVKGRFTISRDNAKNTVYLQMNSLKPEDTAVYYCARTVYGARSFDYWGQGTQVTVSS”, with “low polyreactivity”; and “QLQLVESGGGLVQAGGSLRLSCAASGRIFQDNPKGWYRPPPSKERELVAAISISGGITYYADSVKGRFTISRDNAKNTVYLQMNSLKPEDTAVYYCNKSISARLPGRYDYWGQGTQVTVSS”, with “low polyreactivity”.

On to “QLQLVESGGGLVQAGGSLRLSCAASGRIFVLYTMGRNRQATGKERELVAAISNVGSTNYADSVKGRFTISRDNAKYTVYLQMNSLIPEDTAVYYCNDRRRYGWHLYYYWGQGTQVTVSS”, for which the “polyreactivity (PSR sort gate)” value was “high polyreactivity”.
